Data published in the supplement of paper PMC9170038.

Test system: MS2 coat protein
Experiment: apparent KD of MS2 coat protein; designed switch direction (-1 OFF switch, 1 ON switch): -1; higher = weaker reporter binding
Method in brief: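 Stalled E. coli RNA polymerase transcribed designed RNA switches on Illumina chips, which were then titrated with SNAP-549-labelled MS2 coat protein, doubling from 0.7 or 1.5 nM to 3 µM. Steps lasted from 0.8–1.5 h at the lowest concentration to 10–20 min at the highest. The apparent KD is each design's median over clusters of curve-fitted normalised fluorescence.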

[1] = Eterna round: R95, input ligand: microRNA oligo, concentration not stated
[2] = input ligand: microRNA oligo, concentration not stated
[3] = Eterna round: R95, input ligand: FMN 200 uM
[4] = Eterna round: R95, input ligand: none

Sequence | apparent KD of MS2 coat protein [1] [nM] | apparent KD of MS2 coat protein (input ligand: FMN 200 uM) [nM] | apparent KD of MS2 coat protein (input ligand: none) [nM] | also measured
AUAUCCCGAGGAUAUACAUGAGGAUCACCCAUGUCGGGCCUCUGGCCUAAGGCCGAAAGUAGAAGGUGGGUUUC [JL Riri mod 11] (puzzle: Exclusion 3) | 126 |  |  | 
CACCGUUAGGGAGGAUAUCGUACAUGAGGAUCACCCAUGUAAUAAAUGAGAAUUUCGGAUGUAUGCGAGAAGGCCCAAAUCGGC [Ostracism 42 - Jieux - Exclusion NG 2] (Eterna round: R96, puzzle: Exclusion NG 2) |  | 36.8 | 48.4 | apparent KD of MS2 coat protein [2]: 35.8 nM
CCUCAGUAAGGAUAUCAGCUUAUAAGGUUGGUAAUGAGAGCUGAGAAGGUACAUGAGGAUCACCCAUGUUAGUU [JL Zatite mod 6] (puzzle: Exclusion 4) | 26.7 |  |  | 
UAUGGUUAAGUCAGGAUAUGCACGCAGAUUACAAUGCAGAAGGGACAUGAGGAUCACCCAUGUACACUCGUGUU [Ex4 #80] (Eterna round: R97, puzzle: Brourd's mod of Exclusion 4) |  | 40.7 | 31.8 | 
UCGGAUUCAGGAUAUUGCACAUGUGACAUGAGGAUCACCCAUGUUCCCUUAUUUGGUCACCAAGAAGGGAGUUUAU [Eternabot (L2) Solution 34] (Eterna round: R97, puzzle: Exclusion 5) |  | 157 | 152 | 
ACGUGAUAUCUGUCGGUGGACAUGAGGAUCACCCAUGUAAGCUUUUCGCUCGUCUUAUAACCCGGUGACAGACCUUC [Edraatis] (puzzle: Sensor v3, turn-off variant 1) | 417 |  |  | apparent KD of MS2 coat protein [3]: 33.7 nM; apparent KD of MS2 coat protein [4]: 48 nM
AAAACACAUGAGGAUCACCCAUGUGAGGAUAUGUUAAUUUUAAUGAAAAUUAAAAUUAACAGAAGGCACAGAAA [JR_Exclusion1_Sub024] (puzzle: Exclusion 1) | 45.6 |  |  | apparent KD of MS2 coat protein [3]: 46.3 nM; apparent KD of MS2 coat protein [4]: 54.2 nM
AAGAAACAUGAGGAUCACCCAUGUGAGGAUAUGACAAAGAAAAGAAAAGAAAGAAGAGUCAGAAGGCACAAAGG [salish99-ex1_r3_038] (puzzle: Exclusion 1) | 53.1 |  |  | apparent KD of MS2 coat protein [3]: 137 nM; apparent KD of MS2 coat protein [4]: 57.7 nM
CUAGUAUAUCAGGAUAUGAUAUUGUGUAGUAUAUCAGAAGGGAUGACAUGAGGAUCACCCAUGUUAUGGGAUGA [JR_Ex6_Sub048] (Eterna round: R97, puzzle: Exclusion 6) |  | 273 | 121 | 
GUAAAGUGAGGAUAUGGUAAUUUAAUUAUUAAUUAAUUAAUCCAGAAGGCACAUGAGGAUCACCCAUGUAAAGG [Mat - Exclusion 4 - D93] (puzzle: Exclusion 4) | 34.6 |  |  | 
ACCUCACAUGAGGAUCACCCAUGUCAGGAUAUCUAAUAUUGUAGCGUUCCCGACGCUAAGAGAAGGGACAUUAA [EX1 #31] (Eterna round: R97, puzzle: Exclusion 1) |  | 19.5 | 16.5 | 
AAUGAUUCAGGAUAUACAUGAGGAUCACCCAUGUUGGUGUCCCUCCCAAAGUUGCAGUGUAGAAGGGAGUCCCG [Tigezaonbi] (puzzle: Exclusion 3) | 132 |  |  | 
AUAAGGUCAGGAUAUGCUUGGCUGAUUCUGGUGUCCAAAUGACAUGAGGAUCACCCAUGUAGAAGGGACAUCAG [Usgeledi] (Eterna round: R97, puzzle: Exclusion 2) |  | 16.1 | 15.1 | 
CAAUGACAUGAGGAUCACCCAUGUGAGGAUAUGGAGCGAGACCGCGCGGUCGCGUACACCAGAAGGCGCAGGCG [1st #66] (Eterna round: R97, puzzle: Exclusion 1) |  | 89.3 | 37.9 | 
GAUUGACAUGAGGAUCACCCAUGUGAGGAUAUCGGCCGGACCGUGUUAGCUUCCGUCGCGAGAAGGCGCAUAGG [Exclusion 1 V38] (puzzle: Exclusion 1) | 42.8 |  |  | apparent KD of MS2 coat protein [3]: 42.3 nM; apparent KD of MS2 coat protein [4]: 36.7 nM
UAUAUAUAGUAAGGAUAUGUAUAUAUUGUAUAAACAGAAGGUACUGACAUGAGGAUCACCCAUGUUUUAGUGUGGGCAUGUAGA [JMF's solution 61] (Eterna round: R96, puzzle: Exclusion NG 1) |  |  |  | apparent KD of MS2 coat protein [2]: 57.5 nM
GAUACACAUGAGGAUCACCCAUGUGAGGAUAUGCGUACGUUGUCCGUAGGCGACGUGCGCAGAAGGCGCGAGGU [Mat - Mod of JL D92] (puzzle: Exclusion 1) | 31.8 |  |  | 
GCGCACCUACCAAAAGGUAGGCCGACAUGAGGAUCACCCAUGUAGGAUAUCGAUUGCUUUGCAGUCGAGAAGGACGUGAUGCGC [JL ENG3 3.80 Mod 18] (Eterna round: R96, puzzle: Exclusion NG 3) |  | 20.1 | 19.4 | apparent KD of MS2 coat protein [2]: 14.7 nM

Sequence | apparent KD of MS2 coat protein [1] [nM] | apparent KD of MS2 coat protein (input ligand: FMN 200 uM) [nM] | apparent KD of MS2 coat protein (input ligand: none) [nM] | also measured
UCGUGAUUAGAGGAUAUAUUAAGGGUCAGAACAAUAGAAGGCUAAACAUGAGGAUCACCCAUGUAAAUGGUUUU [JR_Ex6_Sub058] (Eterna round: R97, puzzle: Exclusion 6) |  | 183 | 70.7 | 
UUAAAUCAUGUAGGAUAUGCGUGGCGAAGCUAUGCAGAAGGACAUGAGGAUCACCCAUGUUCUAGCGUCUGAGUACAGAUGCAA [Mat - Exclusion NG 1 - Mod of JL - D2] (Eterna round: R96, puzzle: Exclusion NG 1) |  | 244 | 18.9 | apparent KD of MS2 coat protein [2]: 17.4 nM
UCAAGUUUAGAGGAUAUAUAAUAUUUAUUAACUAUAGAAGGCUAUACAUGAGGAUCACCCAUGUAUAUUGGGAU [JR_Ex6_Sub066] (Eterna round: R97, puzzle: Exclusion 6) |  | 40.6 | 26.1 | 
UUAAAUCAUGUAGGAUAUGCUUUGCGAAGCGAGGCAGAAGGACAUGAGGAUCACCCAUGUGCUAGCGUCCGCGUACGGAUGCAA [Mat - Exclusion NG 1 - Mod of JL - D61] (Eterna round: R96, puzzle: Exclusion NG 1) |  | 166 | 83 | apparent KD of MS2 coat protein [2]: 57.3 nM
UUGGAUGUUGAGGAUAUGCUGGUGUUUAUUAUAGCAGAAGGCGAUACAUGAGGAUCACCCAUGUUCAUGGCUUU [JR_E6_Sub100] (puzzle: Exclusion 6) | 12.4 |  |  | 
UGAAUACGUGUUAGGAUAUGGUUUGGUAUUUCGGGCUAGAAGGGACAUGAGGAUCACCCAUGUAAUUGAUAGGU [-16.2, -13.6 kcal, 27% A] (Eterna round: R97, puzzle: Brourd's mod of Exclusion 4) |  | 52.4 | 38.5 | 
AGCUGUGGCCGAGGAUAUCUAAUAGUCCCAACCGAAAUAUAAUCGGACAUGAGGAUCACCCAUGUAGAGAAGGCGGUCUCAGCA [Eli eng2 - 069] (Eterna round: R96, puzzle: Exclusion NG 2) |  | 286 | 113 | apparent KD of MS2 coat protein [2]: 102 nM
CCAGCAAAUGUAAGGAUAUGCUGGUCCUUGGAUCAGCAGAAGGUACAUGAGGAUCACCCAUGUGUGAAAGCUGG [Eli bmx4 4.57] (Eterna round: R97, puzzle: Brourd's mod of Exclusion 4) |  | 674 | 166 | 
CCGAUAAUGUAGGAUAUCGUAUCGGAAACGAUACGAGAAGGACAAACAUGAGGAUCACCCAUGUUCCUUAACGG [Mat - Exclusion 6 - Eli Mod - D73] (puzzle: Exclusion 6) | 15 |  |  | 
CCGCAUAAGCAGGAUAUCGUAUCGGAGACGAUACGAGAAGGGUUAACAUGAGGAUCACCCAUGUUCCUUAACGG [Mat - Exclusion 6 - Eli Mod - D99] (puzzle: Exclusion 6) | 14.1 |  |  | apparent KD of MS2 coat protein [3]: 19.7 nM; apparent KD of MS2 coat protein [4]: 18.1 nM
UGGUAACAUGAGGAUCACCCAUGUCAGGAUAUCAGUAAGAAUAGAUUAGAUUAGAAUAUGAGAAGGGACUAUAU [Excluse me! 4 - Jieux - Exclusion 1] (puzzle: Exclusion 1) | 30.9 |  |  | 
UCGUGAUUAGAGGAUAUAUUAAGAGUCAGAACAAUAGAAGGCUAAACAUGAGGAUCACCCAUGUAAAUGUGAAA [JR_Ex6_Sub060] (Eterna round: R97, puzzle: Exclusion 6) |  | 172 | 35.5 | 
ACAAGCUUUUUCGUGGGUGACAUGAGGAUCACCCAUGUUUGCCGCGUCUUGUCGUCGUGGACCUGUGGUCCAUGACG [Small mod of -44.6, -64.9 by Sellena] (Eterna round: R97, puzzle: Sensor, turn-off variant 1) |  | 137 | 153 | 
AGGGAUAAAGGAUAUACAUGAGGAUCACCCAUGUUGAGGAAGGUUAGAUGAGGAGUAAGUAGAAGGUUAGACGA [JR_Exclu3_Sub088] (puzzle: Exclusion 3) | 40.7 |  |  | apparent KD of MS2 coat protein [3]: 45.7 nM; apparent KD of MS2 coat protein [4]: 61.3 nM
CUGCUCCGUGUAGGAUAUGCGCGCAACCAACGCGCAGAAGGACAUGAGGAUCACCCAUGUAUGUUAUUAUCACGUGAGGCGCAG [Design 33] (Eterna round: R96, puzzle: Exclusion NG 1) |  | 28.9 | 16.6 | apparent KD of MS2 coat protein [2]: 13.2 nM
CCCAGUUACGUAGGAUAUUGUACAUGAGGAUCACCCAUGUAAUAAAUGAGGAUUUCGGGUGUCUACAAGAAGGACGGGAUAGGC [Ostracism 17 - Jieux - Exclusion NG 2] (Eterna round: R96, puzzle: Exclusion NG 2) |  | 186 | 93 | apparent KD of MS2 coat protein [2]: 80.6 nM
GGGUGACAUGAGGAUCACCCAUGUGAGGAUAUCUGGAUACUCUUUAUUUUAGAUAUCCAGAGAAGGCACACCCU [Ex1-3: 6Z] (puzzle: Exclusion 1) | 356 |  |  | 
